Laboratory results taken from paper PMC6048556.

Assays:
[1] = target: PA28γ (endogenous) (human (endogenous in U2OS, HeLa, U937)) (UniProt P61289); test: co-IP
[2] = target: PIP30/FAM192A (endogenous) (human (endogenous in U2OS, HeLa, U937)) (UniProt Q9GZU8); test: co-IP
Chain of UniProt Q9GZU8 (Q9GZU8 whole entry): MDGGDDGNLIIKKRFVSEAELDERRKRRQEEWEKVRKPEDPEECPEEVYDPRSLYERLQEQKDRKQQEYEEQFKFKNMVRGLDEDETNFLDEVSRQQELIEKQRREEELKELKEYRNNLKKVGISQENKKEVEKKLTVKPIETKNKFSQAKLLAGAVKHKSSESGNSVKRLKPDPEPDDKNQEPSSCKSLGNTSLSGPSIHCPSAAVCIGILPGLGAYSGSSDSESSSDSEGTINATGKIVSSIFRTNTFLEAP

percent coprecipitated [1] | percent coprecipitated [2] | Substance
> 70% | – | PIP30/FAM192A (endogenous) (from UniProt Q9GZU8 1-254) (natural protein)
– | > 70% | PA28γ (endogenous) (from UniProt P61289 1-254) (natural protein)
